# Assay results as given in the Human Domainome abundance scans (Beltran et al. 2025).
# ± gives the uncertainty stated by the source.
# B1: Homeobox protein SIX3, residues 212 to 262; numbered along this chain, O95343 (parent)
# chain: CFKERTRSLLREWYLQDPYPNPSKKRELAQATGLTPTQVGNWFKNRRQRDR
# Variants of: B1
# Experiment: abundance fitness (aPCA) (normalised: wild type 0, dead -1); higher = more abundant; growth selection in yeast, the domain comes from the species named
# Details: Homo sapiens
row,Variant,abundance fitness
1,CFKERTRSLLREWYLQDPYPNPSKKREAAQATGLTPTQVGNWFKNRRQRDR,-1.05 ± 0.27
2,CFKERTRSLLREWYLQDPYPNPSKKRECAQATGLTPTQVGNWFKNRRQRDR,-0.59 ± 0.045
3,CFKERTRSLLREWYLQDPYPNPSKKREDAQATGLTPTQVGNWFKNRRQRDR,-0.805 ± 0.22
4,CFKERTRSLLREWYLQDPYPNPSKKREEAQATGLTPTQVGNWFKNRRQRDR,-1.04 ± 0.28
5,CFKERTRSLLREWYLQDPYPNPSKKREFAQATGLTPTQVGNWFKNRRQRDR,-0.07 ± 0.067
6,CFKERTRSLLREWYLQDPYPNPSKKREHAQATGLTPTQVGNWFKNRRQRDR,-0.778 ± 0.26
7,CFKERTRSLLREWYLQDPYPNPSKKREIAQATGLTPTQVGNWFKNRRQRDR,-0.162 ± 0.14
8,CFKERTRSLLREWYLQDPYPNPSKKREKAQATGLTPTQVGNWFKNRRQRDR,-0.668 ± 0.095
9,CFKERTRSLLREWYLQDPYPNPSKKREMAQATGLTPTQVGNWFKNRRQRDR,0.029 ± 0.054
10,CFKERTRSLLREWYLQDPYPNPSKKRENAQATGLTPTQVGNWFKNRRQRDR,-0.99 ± 0.16
11,CFKERTRSLLREWYLQDPYPNPSKKREQAQATGLTPTQVGNWFKNRRQRDR,-0.872 ± 0.11
12,CFKERTRSLLREWYLQDPYPNPSKKRERAQATGLTPTQVGNWFKNRRQRDR,-0.895 ± 0.091
13,CFKERTRSLLREWYLQDPYPNPSKKRESAQATGLTPTQVGNWFKNRRQRDR,-0.833 ± 0.11
14,CFKERTRSLLREWYLQDPYPNPSKKRETAQATGLTPTQVGNWFKNRRQRDR,-0.876 ± 0.24
15,CFKERTRSLLREWYLQDPYPNPSKKREVAQATGLTPTQVGNWFKNRRQRDR,-0.147 ± 0.079
16,CFKERTRSLLREWYLQDPYPNPSKKREWAQATGLTPTQVGNWFKNRRQRDR,-0.572 ± 0.056
17,CFKERTRSLLREWYLQDPYPNPSKKREYAQATGLTPTQVGNWFKNRRQRDR,0.069 ± 0.095
18,CFKERTRSLLREWYLQDPYPNPSKKRELCQATGLTPTQVGNWFKNRRQRDR,-0.588 ± 0.24
19,CFKERTRSLLREWYLQDPYPNPSKKRELDQATGLTPTQVGNWFKNRRQRDR,-0.93 ± 0.41
20,CFKERTRSLLREWYLQDPYPNPSKKRELEQATGLTPTQVGNWFKNRRQRDR,-0.888 ± 0.16
21,CFKERTRSLLREWYLQDPYPNPSKKRELGQATGLTPTQVGNWFKNRRQRDR,-0.468 ± 0.065
22,CFKERTRSLLREWYLQDPYPNPSKKRELHQATGLTPTQVGNWFKNRRQRDR,-0.777 ± 0.34
23,CFKERTRSLLREWYLQDPYPNPSKKRELKQATGLTPTQVGNWFKNRRQRDR,-0.856 ± 0.24
24,CFKERTRSLLREWYLQDPYPNPSKKRELLQATGLTPTQVGNWFKNRRQRDR,-0.911 ± 0.18
25,CFKERTRSLLREWYLQDPYPNPSKKRELMQATGLTPTQVGNWFKNRRQRDR,-1.03 ± 0.19
26,CFKERTRSLLREWYLQDPYPNPSKKRELPQATGLTPTQVGNWFKNRRQRDR,-0.911 ± 0.25

row,Variant,abundance fitness
1,CFKERTRSLLREWYLQDPYPNPSKKRELQQATGLTPTQVGNWFKNRRQRDR,-0.897 ± 0.37
2,CFKERTRSLLREWYLQDPYPNPSKKRELRQATGLTPTQVGNWFKNRRQRDR,-1.11 ± 0.19
3,CFKERTRSLLREWYLQDPYPNPSKKRELSQATGLTPTQVGNWFKNRRQRDR,-0.125 ± 0.084
4,CFKERTRSLLREWYLQDPYPNPSKKRELTQATGLTPTQVGNWFKNRRQRDR,-0.76 ± 0.26
5,CFKERTRSLLREWYLQDPYPNPSKKRELWQATGLTPTQVGNWFKNRRQRDR,-0.704 ± 0.16
6,CFKERTRSLLREWYLQDPYPNPSKKRELAAATGLTPTQVGNWFKNRRQRDR,-0.19 ± 0.059
7,CFKERTRSLLREWYLQDPYPNPSKKRELACATGLTPTQVGNWFKNRRQRDR,-0.243 ± 0.039
8,CFKERTRSLLREWYLQDPYPNPSKKRELADATGLTPTQVGNWFKNRRQRDR,0.037 ± 0.084
9,CFKERTRSLLREWYLQDPYPNPSKKRELAEATGLTPTQVGNWFKNRRQRDR,-0.068 ± 0.094
10,CFKERTRSLLREWYLQDPYPNPSKKRELAFATGLTPTQVGNWFKNRRQRDR,-0.284 ± 0.065
11,CFKERTRSLLREWYLQDPYPNPSKKRELAGATGLTPTQVGNWFKNRRQRDR,-0.166 ± 0.05
12,CFKERTRSLLREWYLQDPYPNPSKKRELAHATGLTPTQVGNWFKNRRQRDR,-0.149 ± 0.048
13,CFKERTRSLLREWYLQDPYPNPSKKRELAIATGLTPTQVGNWFKNRRQRDR,0.228 ± 0.087
14,CFKERTRSLLREWYLQDPYPNPSKKRELALATGLTPTQVGNWFKNRRQRDR,-0.139 ± 0.045
15,CFKERTRSLLREWYLQDPYPNPSKKRELANATGLTPTQVGNWFKNRRQRDR,0.114 ± 0.09
16,CFKERTRSLLREWYLQDPYPNPSKKRELAPATGLTPTQVGNWFKNRRQRDR,-0.93 ± 0.15
17,CFKERTRSLLREWYLQDPYPNPSKKRELARATGLTPTQVGNWFKNRRQRDR,-0.329 ± 0.05
18,CFKERTRSLLREWYLQDPYPNPSKKRELASATGLTPTQVGNWFKNRRQRDR,-0.044 ± 0.039
19,CFKERTRSLLREWYLQDPYPNPSKKRELAVATGLTPTQVGNWFKNRRQRDR,-0.163 ± 0.054
20,CFKERTRSLLREWYLQDPYPNPSKKRELAWATGLTPTQVGNWFKNRRQRDR,-0.097 ± 0.072
21,CFKERTRSLLREWYLQDPYPNPSKKRELAYATGLTPTQVGNWFKNRRQRDR,-0.314 ± 0.099
22,CFKERTRSLLREWYLQDPYPNPSKKRELAQCTGLTPTQVGNWFKNRRQRDR,-0.296 ± 0.095
23,CFKERTRSLLREWYLQDPYPNPSKKRELAQDTGLTPTQVGNWFKNRRQRDR,-0.475 ± 0.12
24,CFKERTRSLLREWYLQDPYPNPSKKRELAQETGLTPTQVGNWFKNRRQRDR,-0.076 ± 0.048
25,CFKERTRSLLREWYLQDPYPNPSKKRELAQFTGLTPTQVGNWFKNRRQRDR,-0.749 ± 0.18
